Measured values reported in publication PMC8184781 (2021).
Ends that are not written are not given here.

Target: T1, RDM15 Tudor domain (residues 598-662), wild type (Arabidopsis thaliana)
T1 chain: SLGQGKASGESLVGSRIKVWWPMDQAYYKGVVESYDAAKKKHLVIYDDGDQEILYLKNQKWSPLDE
Assay: ITC

- Kd: 1.47 µM
Binder: ARTK(Me)QTARKSTGGKA [H3(1-15) K4me1 peptide]
